# Measurements from IntAct's records for PubMed 24525234.
# B1: Rho guanine nucleotide exchange factor 2 (Mus musculus), Q60875 (parent)
# chain: MSRIESLTRARIDRSKEQATKTREKEKMKEAKDARYTNGHLFTTISVSGMTMCYACNKSITAKEALICPTCNVTIHNRCKDTLANCTKVKQKQQKAALLRNNTALQSVSLRSKTTTRERPTSAIYPSDSFRQSLLGSRRGLSSLSLAKSVSTTNIAGHFNDESPLGLRQILSQSTDSLNMRNRTLSVESLIDEGVEVFYNELMSDFEMDEKDFEADSWSLAVDSSFLQQHKKEVMKKQDVIYELIQTELHHVRTLKIMTRLFRTGMLEELQMEPEVVQGLFPCVDELSDIHTRFLNQLLERRRQALCPGSTRNFVIHRLGDLLISQFSGSNAEQMRKTYSEFCSRHTKALKLYKELYARDKRFQQFIRKMTRSAVLKRHGVQECILLVTQRITKYPVLINRILQNSHGVEEEYQDLASALGLVKELLSNVDQDVHELEKEARLQEIYNRMDPRAQTPVPGKGPFGRDELLRRKLIHEGCLLWKTATGRFKDVLLLLMTDVLVFLQEKDQKYIFTSLDKPSVVSLQNLIVRDIANQAKGMFLISSGPPEMYEVHAASRDDRTTWIRVIQQSVRLCPSREDFPLIETEDKAYLRRIKTKLQQKNQALVELLQKNVELFAEMVHFQALKAGFVGMPPPALPRGLFRLESFESLRGERLLKDALREVEGLKDLLLGPCVDLPMTSREPALPLDSDSGSCPGVTANGEARTFNGSIELCRADSDSSQKDRNGNQLRSPQEEVLQPLINLYGLLHGLQAVVVQQERLMEALFPEGPERWEKLSRANSRDGEAGRAAVASVTPEKQATELALLQRQHTLLQEELRRCQRLGEERATEAGSLEARLRESEQARALLEREAEEIRRQLAALGQNEPLPAEAPWARRPLDPRRRSLPAGDALYLSFNPPQPSRGHDRLDLPVTVRSLHRPFDDREAQELGSPEDRLQDSSDPDTGSEEEVSSRLSPPHSPRDFTRMQDIPEETESRDGEPTASES
# Variants of: B1
# Conditions: with rhoa_human RHOA
row,Variant,effect of a mutation on the interaction
1,E243K,disrupting interaction
